Measurements: article PMC8102066, “Differences in interactions between transmembrane domains tune the activation of metabotropic glutamate receptors” (eLife, 2021)
One block for each substance: values may come before it.

Columns and labels:
HA-SNAP-mGluR3-TMD (rat) = assay: single-molecule pulldown (SiMPull) with photobleaching step counting; HEK 293T cells surface-labelled with BG-LD555, lysed in 1.2% IGEPAL, diluted in 0.1% IGEPAL buffer; HA-SNAP constructs captured by biotinylated anti-HA antibody on NeutrAvidin/PEG slides; TIRF; percent dimerization = two-step bleaching min-max normalised (5% background, 55% for full-length mGluR2); in some experiments saturating ligands (TASP, MNI 137, glutamate, LY34) kept from cell dissociation on
SNAP-mGluR3-TMD-S686A = assay: SiMPull; details: SNAP-tagged constructs labeled with LD555; 6 movies; parent: est. 46; read off a plot
SNAP-mGluR2-TMD-I779A [1] = assay: SiMPull; details: SNAP-tagged constructs labeled with LD555; 6 movies; parent: est. 80; read off a plot
SNAP-mGluR2-TMD-I779A [2] = assay: SiMPull; details: SNAP-tagged constructs labeled with LD555; 6 movies; parent: est. 80; read off a plot; remark: listed apart in the source
SNAP-mGluR3-TMD-G694A = assay: SiMPull; details: SNAP-tagged constructs labeled with LD555; 6 movies; parent: est. 46; read off a plot
SNAP-mGluR3-TMD-3xTM4_W = assay: SiMPull; details: SNAP-tagged constructs labeled with LD555; 6 movies; parent: est. 46; read off a plot
SNAP-mGluR3-TMD-I788A = assay: SiMPull; details: SNAP-tagged constructs labeled with LD555; 6 movies; parent: est. 50; read off a plot
HA-SNAP-mGluR2-TMD (rat) = assay: single-molecule pulldown (SiMPull) with photobleaching step counting; HEK 293T cells surface-labelled with BG-LD555, lysed in 1.2% IGEPAL, diluted in 0.1% IGEPAL buffer; HA-SNAP constructs captured by biotinylated anti-HA antibody on NeutrAvidin/PEG slides; TIRF; percent dimerization = two-step bleaching min-max normalised (5% background, 55% for full-length mGluR2); in some experiments saturating ligands (TASP, MNI 137, glutamate, LY34) kept from cell dissociation on
SNAP-mGluR3-TMD-F690A = assay: SiMPull; details: SNAP-tagged constructs labeled with LD555; 6 movies; parent: est. 46; read off a plot
SNAP-mGluR2-TMD-P778A = assay: SiMPull; details: SNAP-tagged constructs labeled with LD555; 6 movies; parent: est. 80; read off a plot
SNAP-mGluR2-TMD-I779W = assay: SiMPull; details: SNAP-tagged constructs labeled with LD555; 6 movies; parent: est. 80; read off a plot
[3] = molecular target: SNAP-mGluR2-TMD-P778A-I779A; assay: SiMPull; details: SNAP-tagged constructs labeled with LD555; 6 movies; parent: est. 80; read off a plot
SNAP-mGluR2-TMD-3xTM4_W = assay: SiMPull; details: SNAP-tagged constructs labeled with LD555; 9 movies; parent: est. 83; read off a plot

Sequence of HA-SNAP-mGluR3-TMD (domain or fragment) (P31422 23-879): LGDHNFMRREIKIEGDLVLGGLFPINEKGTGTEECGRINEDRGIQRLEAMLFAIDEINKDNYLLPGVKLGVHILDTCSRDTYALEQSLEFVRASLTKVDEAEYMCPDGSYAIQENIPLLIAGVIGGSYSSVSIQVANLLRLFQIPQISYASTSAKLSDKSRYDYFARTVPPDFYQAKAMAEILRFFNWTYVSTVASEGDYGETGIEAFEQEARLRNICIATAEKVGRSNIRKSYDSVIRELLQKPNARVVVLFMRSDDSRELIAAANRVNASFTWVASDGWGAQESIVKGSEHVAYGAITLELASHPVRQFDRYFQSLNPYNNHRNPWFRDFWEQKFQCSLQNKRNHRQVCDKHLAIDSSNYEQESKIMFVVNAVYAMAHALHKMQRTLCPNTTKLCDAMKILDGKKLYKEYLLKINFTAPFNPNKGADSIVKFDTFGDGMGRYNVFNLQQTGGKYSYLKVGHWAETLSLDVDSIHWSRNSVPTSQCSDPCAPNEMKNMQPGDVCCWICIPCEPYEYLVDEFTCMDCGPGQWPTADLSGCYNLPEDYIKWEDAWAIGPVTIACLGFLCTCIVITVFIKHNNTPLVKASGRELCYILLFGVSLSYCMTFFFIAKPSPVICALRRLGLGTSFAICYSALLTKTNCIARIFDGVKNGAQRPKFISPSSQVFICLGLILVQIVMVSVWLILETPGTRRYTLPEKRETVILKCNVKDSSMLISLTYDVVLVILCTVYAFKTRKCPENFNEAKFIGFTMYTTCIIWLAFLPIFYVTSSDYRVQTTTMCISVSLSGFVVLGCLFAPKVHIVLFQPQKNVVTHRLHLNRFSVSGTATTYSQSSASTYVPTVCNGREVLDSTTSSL
Sequence of HA-SNAP-mGluR2-TMD (domain or fragment) (P31421 19-872): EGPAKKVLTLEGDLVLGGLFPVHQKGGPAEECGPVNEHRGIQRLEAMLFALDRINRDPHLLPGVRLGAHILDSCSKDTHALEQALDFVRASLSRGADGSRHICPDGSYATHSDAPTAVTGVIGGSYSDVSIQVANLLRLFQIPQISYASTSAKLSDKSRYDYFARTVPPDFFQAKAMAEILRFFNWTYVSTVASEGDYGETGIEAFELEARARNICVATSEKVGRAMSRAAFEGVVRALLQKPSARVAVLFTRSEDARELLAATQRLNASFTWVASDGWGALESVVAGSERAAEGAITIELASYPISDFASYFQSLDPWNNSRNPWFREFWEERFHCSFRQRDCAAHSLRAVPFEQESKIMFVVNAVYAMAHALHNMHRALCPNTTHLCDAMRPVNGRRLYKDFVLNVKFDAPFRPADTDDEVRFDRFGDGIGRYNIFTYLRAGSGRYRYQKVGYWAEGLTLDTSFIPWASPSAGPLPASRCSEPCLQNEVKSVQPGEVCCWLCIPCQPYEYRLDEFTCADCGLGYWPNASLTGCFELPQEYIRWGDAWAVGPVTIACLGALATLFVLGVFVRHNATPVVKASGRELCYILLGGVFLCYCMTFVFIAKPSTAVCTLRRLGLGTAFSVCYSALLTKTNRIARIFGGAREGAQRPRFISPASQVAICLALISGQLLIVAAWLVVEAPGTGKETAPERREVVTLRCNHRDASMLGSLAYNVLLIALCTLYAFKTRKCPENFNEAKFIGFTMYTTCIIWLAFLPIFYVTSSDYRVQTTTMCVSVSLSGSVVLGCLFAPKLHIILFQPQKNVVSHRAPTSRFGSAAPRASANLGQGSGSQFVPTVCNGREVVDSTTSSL

percent of spots bleaching in >3 steps (HA-SNAP-mGluR3-TMD (rat)): 2.9%
percent of spots bleaching in one step (HA-SNAP-mGluR3-TMD (rat)): 69.1%
percent of spots bleaching in two steps (HA-SNAP-mGluR3-TMD (rat)): 27.9%
Substance: HA-SNAP-mGluR3-TMD (domain or fragment)

other: percent dimerization (SNAP-mGluR3-TMD-S686A): 72%
Substance: HA-SNAP-mGluR3-TMD S686A

other: percent dimerization (SNAP-mGluR2-TMD-I779A [1]): 57%
other: percent dimerization (SNAP-mGluR2-TMD-I779A [2]): 57%
Substance: HA-SNAP-mGluR2-TMD I779A

other: percent dimerization (SNAP-mGluR3-TMD-G694A): 62%
Substance: HA-SNAP-mGluR3-TMD G694A

other: percent dimerization (SNAP-mGluR3-TMD-3xTM4_W): 45%
Substance: HA-SNAP-mGluR3-TMD S686W; F690W; G684W

other: percent dimerization (SNAP-mGluR3-TMD-I788A): 38%
Substance: HA-SNAP-mGluR3-TMD I788A

percent of spots bleaching in >3 steps (HA-SNAP-mGluR2-TMD (rat)): 4.5%
percent of spots bleaching in one step (HA-SNAP-mGluR2-TMD (rat)): 54.1%
percent of spots bleaching in two steps (HA-SNAP-mGluR2-TMD (rat)): 41.4%
Substance: HA-SNAP-mGluR2-TMD (domain or fragment)

other: percent dimerization (SNAP-mGluR3-TMD-F690A): 64%
Substance: HA-SNAP-mGluR3-TMD F690A

other: percent dimerization (SNAP-mGluR2-TMD-P778A): 64%
Substance: HA-SNAP-mGluR2-TMD P778A

other: percent dimerization (SNAP-mGluR2-TMD-I779W): 61%
Substance: HA-SNAP-mGluR2-TMD I779W

other: percent dimerization [3]: 57%
Substance: HA-SNAP-mGluR2-TMD P778A; I779A

other: percent dimerization (SNAP-mGluR2-TMD-3xTM4_W): 39%
Substance: HA-SNAP-mGluR2-TMD A677W; A681W; A685W
